For one molecule, Kd results are on record in PMC5029092 (Science signaling, 2011).

In one assay the target is recombinant human TLR2 (human, UniProt O60603 21-588). The experiment in a line: MST.
Assay [1] has as its target recombinant human TLR4 and MD2 complex (human, UniProt O00206 24-631; Q9Y6Y9 19-160). Nature of the assay: MST.

Chain of recombinant human TLR2 (O60603 21-588): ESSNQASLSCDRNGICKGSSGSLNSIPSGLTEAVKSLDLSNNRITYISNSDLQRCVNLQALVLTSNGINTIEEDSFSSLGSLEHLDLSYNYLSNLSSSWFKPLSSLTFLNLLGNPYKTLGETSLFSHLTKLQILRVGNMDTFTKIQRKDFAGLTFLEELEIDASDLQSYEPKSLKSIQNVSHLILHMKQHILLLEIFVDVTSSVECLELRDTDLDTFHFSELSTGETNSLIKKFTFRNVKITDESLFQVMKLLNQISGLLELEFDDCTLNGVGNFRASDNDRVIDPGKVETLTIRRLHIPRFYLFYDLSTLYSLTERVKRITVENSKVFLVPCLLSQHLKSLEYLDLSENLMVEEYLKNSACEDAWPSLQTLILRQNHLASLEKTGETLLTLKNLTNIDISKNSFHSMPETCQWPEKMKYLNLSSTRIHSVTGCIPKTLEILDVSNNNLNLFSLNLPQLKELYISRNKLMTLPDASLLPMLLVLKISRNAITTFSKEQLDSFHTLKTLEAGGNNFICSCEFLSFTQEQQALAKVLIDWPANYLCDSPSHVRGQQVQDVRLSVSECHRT
Chain of recombinant human TLR4 and MD2 complex (O00206 24-631, chain 1 of 2): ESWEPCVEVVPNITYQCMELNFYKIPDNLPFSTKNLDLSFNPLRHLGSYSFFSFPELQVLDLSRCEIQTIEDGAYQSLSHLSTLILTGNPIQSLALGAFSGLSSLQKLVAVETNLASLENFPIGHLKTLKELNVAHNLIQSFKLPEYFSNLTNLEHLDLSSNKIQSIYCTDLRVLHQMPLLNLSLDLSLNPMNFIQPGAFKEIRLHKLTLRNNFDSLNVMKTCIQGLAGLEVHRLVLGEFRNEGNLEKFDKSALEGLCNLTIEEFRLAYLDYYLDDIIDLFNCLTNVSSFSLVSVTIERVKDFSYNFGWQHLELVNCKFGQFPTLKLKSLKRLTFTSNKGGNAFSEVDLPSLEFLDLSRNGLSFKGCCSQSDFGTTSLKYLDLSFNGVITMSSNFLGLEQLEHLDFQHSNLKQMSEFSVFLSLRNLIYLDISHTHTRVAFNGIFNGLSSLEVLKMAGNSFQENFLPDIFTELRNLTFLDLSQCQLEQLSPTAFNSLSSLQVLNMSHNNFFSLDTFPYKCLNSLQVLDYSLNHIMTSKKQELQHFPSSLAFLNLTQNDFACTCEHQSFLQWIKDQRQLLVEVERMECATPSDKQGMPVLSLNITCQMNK
Chain of recombinant human TLR4 and MD2 complex (Q9Y6Y9 19-160, chain 2 of 2): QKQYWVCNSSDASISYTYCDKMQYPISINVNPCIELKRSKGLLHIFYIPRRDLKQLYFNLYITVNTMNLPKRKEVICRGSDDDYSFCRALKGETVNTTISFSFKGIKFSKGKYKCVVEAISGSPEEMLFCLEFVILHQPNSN

B1: NT-647-labeled human decorin (natural protein, UniProt P07585 31-359, looked up)
chain: DEASGIGPEVPDDRDFEPSLGPVCPFRCQCHLRVVQCSDLGLDKVPKDLPPDTTLLDLQNNKITEIKDGDFKNLKNLHALILVNNKISKVSPGAFTPLVKLERLYLSKNQLKELPEKMPKTLQELRAHENEITKVRKVTFNGLNQMIVIELGTNPLKSSGIENGAFQGMKKLSYIRIADTNITSIPQGLPPSLTELHLDGNKISRVDAASLKGLNNLAKLGLSFNSISAVDNGSLANTPHLRELHLDNNKLTRVPGGLAEHKYIQVVYLHNNNISVVGSSDFCPPGHNTKKASYSGVSLFSNPVQYWEIQPSTFRCVYVRSAIQLGNYK
modifications: fluorophore NT-647 (Monolith NT protein Labeling Kit)
Consider B1, for which the dissociation constant Kd with recombinant human TLR2 was 59 ± 10 nM; in assay [1], 37 ± 5 nM.

The term Kd denotes a measure of binding affinity in units of concentration.
